Where two headings read alike, the source gives them in different places.

These results are taken from publication PMC10359594.

Data set [1] deals with T1, SAMHD1 WT (Homo sapiens, UniProt Q9Y3Z3 1-626). The data set is described as follows: fluorescence anisotropy. On the technique in general: In fluorescence polarisation assays a small probe gives low polarisation when free and higher when bound to something large.
For data set [2], the target named is T1, SAMHD1 WT. As to the kind of experiment: fluorescence anisotropy. This is another data set of the same source.
The target of another data set is SAMHD1 C522A (Homo sapiens, UniProt Q9Y3Z3 1-626, C522A). As to the kind of experiment: fluorescence anisotropy.
Data set [3] addresses T2, SAMHD1 113-626 (HD domain) (Homo sapiens, UniProt Q9Y3Z3 113-626). As to the kind of experiment: crystal structure.
Data set [4] has as its target T2, SAMHD1 113-626 (HD domain). As to the kind of experiment: crystal structure. This is another data set of the same source.
The target of the next data set is SAMHD1 113-626 R451E (Homo sapiens, UniProt Q9Y3Z3 113-626, R451E). The data set is described as follows: fluorescence anisotropy.
SAMHD1 113-626 R451E, sequence (Q9Y3Z3 113-626 R451E): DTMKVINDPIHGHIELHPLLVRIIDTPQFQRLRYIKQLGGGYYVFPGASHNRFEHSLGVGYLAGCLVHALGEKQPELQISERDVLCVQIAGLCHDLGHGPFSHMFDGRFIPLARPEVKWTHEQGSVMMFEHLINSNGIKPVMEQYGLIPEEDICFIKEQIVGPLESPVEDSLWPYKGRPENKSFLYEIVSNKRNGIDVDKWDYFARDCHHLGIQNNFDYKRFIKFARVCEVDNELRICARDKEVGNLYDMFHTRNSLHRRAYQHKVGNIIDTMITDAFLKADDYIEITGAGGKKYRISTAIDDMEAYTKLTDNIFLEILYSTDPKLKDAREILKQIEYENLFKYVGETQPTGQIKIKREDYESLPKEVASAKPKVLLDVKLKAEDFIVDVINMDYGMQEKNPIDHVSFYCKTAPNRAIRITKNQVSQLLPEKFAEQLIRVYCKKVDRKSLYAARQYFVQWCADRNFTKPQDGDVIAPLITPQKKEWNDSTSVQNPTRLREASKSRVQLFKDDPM

T2 sequence (Q9Y3Z3 113-626): as the sequence (Q9Y3Z3 113-626 R451E) above, with E339R counted along it
T1 sequence (Q9Y3Z3 whole entry): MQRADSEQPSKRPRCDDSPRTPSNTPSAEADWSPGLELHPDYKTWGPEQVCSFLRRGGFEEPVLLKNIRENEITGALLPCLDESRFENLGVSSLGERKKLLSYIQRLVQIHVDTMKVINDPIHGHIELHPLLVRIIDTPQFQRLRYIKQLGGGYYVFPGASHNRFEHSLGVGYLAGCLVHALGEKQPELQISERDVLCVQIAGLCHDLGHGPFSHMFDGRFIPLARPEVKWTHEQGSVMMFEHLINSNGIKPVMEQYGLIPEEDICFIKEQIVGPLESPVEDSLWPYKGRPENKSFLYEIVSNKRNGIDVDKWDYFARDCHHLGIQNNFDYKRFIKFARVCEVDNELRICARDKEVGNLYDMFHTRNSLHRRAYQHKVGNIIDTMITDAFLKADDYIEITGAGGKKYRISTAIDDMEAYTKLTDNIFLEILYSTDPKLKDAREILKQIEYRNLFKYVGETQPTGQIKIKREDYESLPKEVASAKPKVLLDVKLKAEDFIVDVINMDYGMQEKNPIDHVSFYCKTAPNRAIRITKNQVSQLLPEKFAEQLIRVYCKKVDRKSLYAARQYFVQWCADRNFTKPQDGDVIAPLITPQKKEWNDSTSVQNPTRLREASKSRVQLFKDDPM
SAMHD1 C522A, sequence (Q9Y3Z3 whole entry C522A, the tested form may be a part): as the sequence (Q9Y3Z3 whole entry) above, with C522A counted along it

B1: 3' overhang (mixed)
DNA 1: TGGAGAATCCCGGTGCCGAGGCCGCTCAATTGGTCGTAGACAGCTCTAGCACCGCTT
DNA 2: TGAGCGGCCTCGGCACCGGGATTCTCCA
For B1, in the data set with SAMHD1 WT [1], the binding result is recorded as “binds”.

B2: 3' fork (mixed)
DNA 1: TGGAGAATCCCGGTGCCGAGGCCGCTCAATTGGTCGTAGACAGCTCTAGCACCGCTT
DNA 2: AATTGTGAGCGGCCTCGGCACCGGGATTCTCCA
With B2, the binding result with SAMHD1 WT [2] was “binds”.

B3: dsDNA 30mer (dsDNA)
DNA 1: GACAGTGTTGAGACAGGACCAGACAGGTAG
DNA 2: CTACCTGTCTGGTCCTGTCTCAACACTGTC
For B3, the binding result with SAMHD1 C522A is listed as “no binding”.
Turning to CATGT (ssDNA) [CATGT 5mer], the binding result in data set [3] is “binds”.
CATTG (ssDNA) [CATTG 5mer]: the binding result in data set [4] is listed as “binds”.
As for GACAGTGTTGAGACAGGACCAGACAGGTAG (ssDNA) [ssDNA 30mer], the binding result with SAMHD1 113-626 R451E is recorded as “no binding”.
